Measured values as given in patent US20240317826A1, “COMPOSITIONS AND METHODS FOR TREATING AND/OR I[…] AGENT FOR TREATING HIV-1 INFECTIONS” (priority 2021, published 2024).

Columns and labels:
[1] = molecular target: GST-INI1 (UniProt Q12824); assay: GST pull-down, bound protein quantitated from Western blot (FIG. 15c)
[2] = molecular target: GST-SAP18 (UniProt O00422); assay: as above
[3] = molecular target: GST-CTD (C-terminal domain of HIV-1 integrase, aa 201-288, GST fusion) (HIV-1 (Hx3B)) (UniProt P04585); assay: Alpha; GST-CTD 0.083 uM
[4] = molecular target: GST-CTD (C-terminal domain of HIV-1 integrase, aa 201-288, GST fusion) (HIV-1 (Hx3B)) (UniProt P04585); assay: Alpha; GST-CTD 0.027 uM

Sequence of GST-SAP18 (O00422 whole entry, the tested form may be a part): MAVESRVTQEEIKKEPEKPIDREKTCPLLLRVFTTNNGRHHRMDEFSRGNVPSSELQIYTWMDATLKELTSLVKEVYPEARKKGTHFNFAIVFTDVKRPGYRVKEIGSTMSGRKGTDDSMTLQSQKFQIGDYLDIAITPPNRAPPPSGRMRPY

| Substance | % binding [1] | % binding [2] | Kd [3] | Kd [4] |
| --- | --- | --- | --- | --- |
| His6-IN(W235E) (enzyme) | < 5% | 20% |  |  |
| His6-SUMO-INI1183-304 (from UniProt Q12824 183-304) |  |  | 3 nM | 3.5 nM |
